Several values for one entry are separate records, joined by “and”; a condition that tells them apart may be missing. Equal entries are not always repeated.
Assays:
[1] = target: biotinylated antigen (biotinylated 16-branched citrullinated peptide); assay: magnetic particle chemiluminescence immunoassay; antibody at 10 RU/ml; kit stored at 4 C for 7 days
[2] = target: biotinylated antigen (biotinylated 16-branched citrullinated peptide); assay: magnetic particle chemiluminescence immunoassay; antibody at 80 RU/ml; kit stored at 4 C for 7 days
[3] = target: biotinylated antigen (biotinylated 16-branched citrullinated peptide); assay: magnetic particle chemiluminescence immunoassay; antibody at 10 RU/ml; kit stored at 37 C for 7 days
[4] = target: biotinylated antigen (biotinylated 16-branched citrullinated peptide); assay: magnetic particle chemiluminescence immunoassay; antibody at 200 RU/ml; kit stored at 4 C for 7 days
[5] = target: biotinylated antigen (biotinylated 16-branched citrullinated peptide); assay: magnetic particle chemiluminescence immunoassay; antibody at 80 RU/ml; kit stored at 37 C for 7 days
[6] = target: biotinylated antigen (biotinylated 16-branched citrullinated peptide); assay: magnetic particle chemiluminescence immunoassay; antibody at 200 RU/ml; kit stored at 37 C for 7 days
[7] = target: biotinylated antigen (biotinylated 16-branched citrullinated peptide); assay: magnetic particle chemiluminescence immunoassay; antibody at 10 RU/ml; kit stored at 4 C for 7 days; mean of two
[8] = target: biotinylated antigen (biotinylated 16-branched citrullinated peptide); assay: magnetic particle chemiluminescence immunoassay; antibody at 80 RU/ml; kit stored at 4 C for 7 days; mean of two
[9] = target: biotinylated antigen (biotinylated 16-branched citrullinated peptide); assay: magnetic particle chemiluminescence immunoassay; antibody at 10 RU/ml; kit stored at 37 C for 7 days; mean of two
[10] = target: biotinylated antigen (biotinylated 16-branched citrullinated peptide); assay: magnetic particle chemiluminescence immunoassay; antibody at 200 RU/ml; kit stored at 4 C for 7 days; mean of two
[11] = target: biotinylated antigen (biotinylated 16-branched citrullinated peptide); assay: magnetic particle chemiluminescence immunoassay; antibody at 80 RU/ml; kit stored at 37 C for 7 days; mean of two
[12] = target: biotinylated antigen (biotinylated 16-branched citrullinated peptide); assay: magnetic particle chemiluminescence immunoassay; antibody at 200 RU/ml; kit stored at 37 C for 7 days; mean of two
[13] = target: biotinylated antigen (biotinylated 16-branched citrullinated peptide); assay: magnetic particle chemiluminescence immunoassay, antigen on streptavidin particles, AP anti-human IgG detection; antibody at 10 RU/ml; kit stored at 4 C for 7 days

RLU [1]: 132000 RLU
RLU [2]: 846000 RLU and 932000 RLU
RLU [3]: 124000 RLU
RLU [4]: 2.38e+06 RLU and 2.42e+06 RLU
RLU [5]: 886000 RLU and 917000 RLU
RLU [6]: 2.32e+06 RLU and 2.44e+06 RLU
RLU (AVER) [7]: 129000 RLU
RLU (AVER) [8]: 889000 RLU
RLU (AVER) [9]: 124000 RLU
RLU (AVER) [10]: 2.4e+06 RLU
RLU (AVER) [11]: 902000 RLU
RLU (AVER) [12]: 2.38e+06 RLU
RLU [13]: 125000 RLU
Substance: anti-citrullinated peptide antibody (quality control material / calibrator of the kit)
